Target: T1, biotinylated soluble human IL-1RI ectodomain (human, UniProt P14778 18-336, biotinylated with EZ-Link Sulfo-NHS-SS-Biotin, approaching 2 mol biotin/mol receptor)
T1 construct: extracellular domain; also called biotinylated IL-1RI; biotinylated human IL-1RI
T1 sequence (looked up): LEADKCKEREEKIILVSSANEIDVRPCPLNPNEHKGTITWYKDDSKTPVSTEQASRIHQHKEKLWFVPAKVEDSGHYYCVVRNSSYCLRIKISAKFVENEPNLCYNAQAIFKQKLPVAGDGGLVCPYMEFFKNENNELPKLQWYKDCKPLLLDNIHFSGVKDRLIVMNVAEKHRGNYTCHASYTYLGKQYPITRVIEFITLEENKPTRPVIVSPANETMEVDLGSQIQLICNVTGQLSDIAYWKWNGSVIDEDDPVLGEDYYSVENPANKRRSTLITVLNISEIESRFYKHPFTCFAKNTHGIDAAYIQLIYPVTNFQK
Assay: SPR, IL-1α binding to biotinylated receptor

B1: human IL-1α (ligand, UniProt P01583 113-271, looked up)
chain: SAPFSFLSNVKYNFMRIIKYEFILNDALNQSIIRANDQYLTAAALHNLDEAVKFDMGAYKSSKDDAKITVILRISKTQLYVTAQDEDQPVLLKEMPEIPKTITGSETNLLFFWETHGTKNYFTSVAHPNLFIATKQDYWVCLAGGPPSITDFQILENQA
Kd: 1 nM

Reference: patent US20050282181A1 (published 2005)
